Legend:
[1] = target: ITK-BTK((SH3)): ITK whose SH3 domain is replaced with the SH3 domain of BTK, fluorescent protein chimera (UniProt P35991); assay: co-IP; Jurkat (JTag) cells transfected with GFP-ITK constructs, stimulated or not with 5 ug/mL anti-CD3e OKT3 cross-linked with rabbit anti-mouse IgG for 1 minute at 37°C, lysed; FP-ITK immunoprecipitated with anti-GFP IgG; SLP-76 and ITK immunoblotted; association index by densitometry against the nonstimulated lane
[2] = target: ITK-BTK((SH3)): ITK whose SH3 domain is replaced with the SH3 domain of BTK, fluorescent protein chimera (UniProt P35991)

UniProt P35991, sequence (P35991 whole entry, stated change not applied, the tested form may be a part): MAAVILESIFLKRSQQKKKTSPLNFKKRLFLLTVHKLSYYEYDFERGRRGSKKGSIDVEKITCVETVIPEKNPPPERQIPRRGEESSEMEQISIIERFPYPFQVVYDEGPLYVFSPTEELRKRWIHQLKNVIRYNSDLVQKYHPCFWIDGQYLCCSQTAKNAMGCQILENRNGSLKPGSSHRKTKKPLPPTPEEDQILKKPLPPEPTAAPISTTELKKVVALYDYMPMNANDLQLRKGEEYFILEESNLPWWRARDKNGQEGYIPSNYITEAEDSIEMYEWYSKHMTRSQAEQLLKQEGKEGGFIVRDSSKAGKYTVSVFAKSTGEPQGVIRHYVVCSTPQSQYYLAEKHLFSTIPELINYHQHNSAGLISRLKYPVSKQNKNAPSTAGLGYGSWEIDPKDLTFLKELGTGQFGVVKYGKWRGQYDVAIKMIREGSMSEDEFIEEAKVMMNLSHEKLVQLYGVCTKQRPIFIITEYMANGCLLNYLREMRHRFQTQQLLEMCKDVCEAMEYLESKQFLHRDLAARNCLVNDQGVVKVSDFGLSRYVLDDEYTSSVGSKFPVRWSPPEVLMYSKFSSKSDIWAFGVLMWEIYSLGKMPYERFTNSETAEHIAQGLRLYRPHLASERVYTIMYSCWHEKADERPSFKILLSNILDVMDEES

B1: SLP-76 (natural protein)
chain: MALRNVPFRSEVLGWDPDSLADYFKKLNYKDCEKAVKKYHIDGARFLNLTENDIQKFPKLRVPILSKLSQEINKNEERRSIFTRKPQVPRFPEETESHEEDNGGWSSFEEDDYESPNDDQDGEDDGDYESPNEEEEAPVEDDADYEPPPSNDEEALQNSILPAKPFPNSNSMYIDRPPSGKTPQQPPVPPQRPMAALPPPPAGRNHSPLPPPQTNHEEPSRSRNHKTAKLPAPSIDRSTKPPLDRSLAPFDREPFTLGKKPPFSDKPSIPAGRSLGEHLPKIQKPPLPPTTERHERSSPLPGKKPPVPKHGWGPDRRENDEDDVHQRPLPQPALLPMSSNTFPSRSTKPSPMNPLPSSHMPGAFSESNSSFPQSASLPPYFSQGPSNRPPIRAEGRNFPLPLPNKPRPPSPAEEENSLNEEWYVSYITRPEAEAALRKINQDGTFLVRDSSKKTTTNPYVLMVLYKDKVYNIQIRYQKESQVYLLGTGLRGKEDFLSVSDIIDYFRKMPLLLIDGKNRGSRYQCTLTHAAGYP
reduction of the ITK-SLP-76 association against wild-type ITK [1]: 32% | TCR-induced tyrosine phosphorylation of ITK-BTK(SH3) in transfected Jurkat cells (anti-ITK IP, antiphosphotyrosine blot), reduction in signal intensity against wild type ITK [2]: 15%
